The supplement of paper PMC9170038

tested on: K4 kissing-loop RNA reporter; assay: apparent KD of K4 kissing-loop reporter; higher = weaker reporter binding; conditions: Eterna round: R107; input ligand: FMN 200 uM
Protocol: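 RNA-MaP round R107: designed RNA switches with theophylline, tryptophan, arginine or FMN aptamers are transcribed on-chip within common flanks. They are titrated with a labelled K4 kissing-loop RNA reporter in RNA-MaP buffer (100 mM Tris pH 7.5, 80 mM KCl, 4 mM MgCl2), without ligand or with the indicated ligand. Median apparent KD per design.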
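Also: bound reporter read as fluorescence of individual clusters on recovered sequencing chips by microscopy, with normalized cluster intensities fitted with a binding model.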

Sequence	apparent KD of K4 kissing-loop reporter [nM]
UGUCAUUGGUCUGAUACCAGAAGAAUCUGGAGUGAUGUUCCAAGUCGAUCAAAAGAUCGCUUCCCUUGGCAGCAGACCGAUGACU [TheoBS 24 #SwitchBubble 13 #StaticStem]	315
UUAAGGGUCCGAGGAUAUCUCCCAGUGAUGUUGGGCGAUACGGCCCUUAAGACUAAUGGUUGAAGGAGAGAAGGCGGCUCCCGAU [Edmaisle]	146
GCGGCCCAGCCGGAUACCAGUGACCCGCUGGGAACCGCGGGCCCAGAGUGAUGUUCGGGACACCCUUGGCAGCCGCCUGGGACGC [#2 Same State - Theophylline B Attempt #17 (HarryS)]	588
CUGAGCCUGACGAAAGUCAGGCUCUGCGAGCGAGGACCGGUACGGCCGCCACUCGGUGCAGUGAUGUUGCAUGGCCGCAAGGCCG [#2 Exclusion - Tryptophan A Attempt #18 (HarryS)]	263
AGCCGAAAGGCGAGUGCUGUCACUCCGGAAGGAGCGCUCGAAAGAGCAGGUAGGUCGCCGGAGUGAUGUUCCGGUGCAGCACUCA [Omei KL Arginine A Exc B v5]	654
AAGUGAUGUUGUAGUGAUGUUGUGAUGUUGCAGGAUAUAUAGUGAUGUAGAAGGGUAUGUACAGAUUUUUUUUUUGAGUGAUGUU [ffdcmullin]	112
GGAUCCACCAGUGAUGUUGGAGAAAACUCUAAGGAUAUGACGAAAGUCAGAAGGUGGUAGACUGGUCAAAGUCCGGUCGGAUCCA [FmnA10 U30+U66]	237
GUGCGGCUAGUGAUGUUGGUUGCGUGGGAAGGAGCGCAGAAACAUGCAGGUAGGUCGCCCACACCUCUGAAAGGAGGUUAAUUCA [Diusdige]	200
UGGAGUUGACGAAAAGUCAACUCCCGAGAAGGAGCGGACGAAAGUCCAGGUAGGUCGCUCGCUACCAGUGAUGUUGGUACGUAAA	107
AACAAGGGAUGUCAGUGAUGUUGUACGUCGCGAGGACCGGUACGGCCGCCACUCGUAAUACACAGAUGAGGGUUCUUUCUCUGAU [theeternabot_sameState_KL_Trp_A_49]	305
UAUAUAUGAUGUGAUACCAGUGAAAAGCCAGUGAUGUUGGAGGAGCUGGUAUAUAAAUAAGACCCUUGGCAGCACAAUCACGUAU [#01 K4 Theophylline B Exclusion]	227
UUUUUGGUUUAGAGUGAUGUUCCUUGUAAUCGAGGACCGGUACGGCCGCCACUCGAUUAGAAAAGAAAAGAAAAGAGUGAUGUUU [BDazzled - #2 SS Tryptophan A]	347
AUUAUAAAGUCGGCCGCCACUGAGAGUAGUGAUGUUACUCUAUUCCUUUAGAUAUUAUAUUUUAUCAGGACCGGGACAUCAGAUU [JR_ExcTryptoB_Sub019]	332
GCUAUGGUAGGAAGGAGCGCUUGCUCGGUCAUAUGAGUGAUGUUCGAGACUGAGCAUUUAUAGCAGGUAGGUCGCCUACUAUAGC [Arginine B K4 9]	235
CGUUUAUAGCAGGAUACCAGUACCCAUAAAGUACGUUAAUAGUAGAGUGAUGUUCUAAAGUACCCUUGGCAGCUUCCCGUGAGUG [ExTheophylB.T]	88.9
GUUGUAUACUGAAGGAGCGAGUAGUGGAAACAUAAACUCAUUGCGAGUGAUGUUCGCGGUACUCAGGUAGGUCGCGGUAAUCGUA [Exclusion Arginine B Gf 11]	820
UGUCAUUGGUCGGCCGCCACUUCAAGGUCAAAGACCAGAGUGAUGUUCUUGCACAAAGUGCUUAGAAGGACCGGGACCGAUGACU [TrypBS 13 #SwitchBubble #K4Middle]	738
GUUACGCAUGGAAGGAGCGCUCUCAGGCUUAAUAACACAGUGAUGUUGUGAAUUUGCCUAAAGCAGGUAGGUCGCCAUGUGUAAC [Ex Arginine B K4 9]	426
AGAGUCGGCUGUGAUACCAGUCGUAUUACAACAUGUCGCAGUGAUGUUGCGAGAUAGGAUGACCCUUGGCAGCACUCAGUACGAU [Same State Theophylline B GF 8]	347
AAAACUAUCAGAAGGAGCGUGGAAUAUACAUCUAUAUUUAAUACGAGUGAUGUUCGUAAUUCACAGGUAGGUCGCUGAUCAAUAA [whbob_Ex_Arginine_B_2th153]	228
AAGUGUGUGGCGGCCGCCACUAGAAUCCAGUGAUGUUGGAGUAAUCAAAUAAAUAAUAAUAAACAUAGGACCGGGCCAUAUAGAA [Same State - Tryptophan B (Freestyle 2)]	154

Sequence	apparent KD of K4 kissing-loop reporter [nM]
AGCGGCCAGUCGGCCGCCACUCCAGGCAGUGAUGUUGCGAAGUUUCUACUAGAGUGAUGUUCUAAGAGGACCGGGACUGACGUAA [Exclusion Tryptophan B Gf 9]	217
AUGCUGUCGGCGUUAAAGUAGUAAUGUGAUACCAGAAAUGCUGUGUUCCCUUGGCAGCACAUUCUUACAGACAGUGAUGUUGUCU [theeternabot_exclusion_KL_Theo_A_8]	414
GCUAGCAUGGCAGGAUAUAGCAAUAGGAGUGAUGUUCCUUGGUAGGUGAGUGAUGUUCACUACCAACUAGAAGGGCCAUGCUAGC	139
UGACUGGACUGAAGGAGCGCGCGAGACAAAGUCUCGAACUCCUAGUGAUGUUAGGAAAUAACGCAGGUAGGUCGCAGUCUAGUCU [ArgBS 10 #SwitchBubble #StaticStem #DoubleMagnet]	225
GUGAGGAUCCGAAGGAGCGUCCGCAAUCCAGUGAUGUUGGGUGUUGGUUAUAUUUAACGAGGACAGGUAGGUCGCGGAUUUUCAA [Same State Arginie B GF 22]	202
CGUAGCAGAUGAAGGAGCGGCUACCUGUAUCAGGCAACUGCCUGAGUGAUGUUCAGGUAUAGCCAGGUAGGUCGCAUCUGCUACG [Arg B Ex t9b]	240
AGGUGGGACGUAGGAUAUCCCUAAUGAUUUACUUCCUGGUUGCUACGCUUCCAGUGAUGUUGGAAGGGAGAAGGACGGGCGAGUU [Riatbive]	365
AGACUUCACCGAAGGAGCGACGUGGCCUAGUGAUGUUAGGCACGAGAGAAAUCUCGUGUACGUCAGGUAGGUCGCGGUGAAGUCA [Omei KL Arginine B SS C v7]	909
UAAAAUAAAUAAUAGAGAGCGUUACUCGAAGGAGCGACGAAUUCGUCAGGUAGGUCGCGAGUGAUGUUCGCAAAUACGCUCUCAU [AK2 Exc Arginine A]	838
AAUGUACAGGGAAGGAGCGUCGUCCAGUGAUGUUGGAGUUAAAUACCAGUGAUGUUGGUUAGGCAGGUAGGUCGCCCUAAAGUAG [#09 K4 Arginine B Exclusion]	102
UUAAUAAUUCAAGGAUAUGUUUUUUUUUUCGAGUGAUGUUCGGAAUUAAUAAAUUUAAAAGAUUAUACAGAAGGUGAUAAAUAGU [Cynwulf-mod#1]	103
CCAUCGCUAUUCGAUACCAGCUACUUAGUGAUGUUAAGUUAAAAUAAAUUGUAGAUUAAAAGCCCUUGGCAGCGAAUAGUGAUGG [Theophylline B K4 19]	149
UAAAUAAUAAAACGAGUGAUGUUCGACGAUACCAGCCUCGAUAGAGGCCCUUGGCAGCGUAAAUGAUCACAAAGCCAAGGUAUAA [#01 K4 Theophylline A Exclusion]	165
GGUAUCCAGUACCAUUGCGUUAAAACAGAAGGAGCGAGAAUAGACUCAGGUAGGUCGCUGUUUAUAGUCGAGUGAUGUUCGAAUC [Same State Arginine A GF 14]	202
AAAAUAAAUCAGUGAUGUUGGUAUCUGGAUACCAGCGAUAAUAAUCGCCCUUGGCAGCCAUGGACGUACAAAAUAAGUACGUCCU [MatMod 18 - Jieux - Same State - Theophylline A]	285
AAAAUUAAGGCCGAAUAAACUUAUUUCAUACGAGGACCGGUACGGCCGCCACUCGAGUCAAGUGAUGUUUGACUAUCUAUUAUUA [JR_ExcTryptoA_Sub009]	61.4
UGUACCGAGUCAGGAUAUGGCGUCGAAAGACGAAUCCUAGUGAUGUUAGUGAUCUGCGAAAGCAGUCCAGAAGGGACUUGGUACU [FmnBS 26 U50]	199
GCAGUGAUGUUGCGGAUGUACAGUGGCGUGCGAGGACCGGUACGGCCGCCACUCGUACAGAGCCAGCUAAUACAUCGAUAGGUGA [whbob_SS_Tryp_A_m6]	289
CGUUUAUAGCAGGAUACCAGUACGGAUAAGGUACGUUAAUAGUAGAGUGAUGUUCUAAAGUACCCUUGGCAGCUUAGAGUGAGUG [#20 K4 Theophylline B Exclusion]	90.3
CAUAUAUAUAGAGGAUAUCGAGUAGAGUGAUGUUCUGCCUGGGUUGGCUCGCAAGGGCCUUCCCAGCGAGAAGGCUAUAUAUAUG [harrys-mod#1ED5.33]	225
CAUACCCAGUGAUGUUGGGUCGGUACCGAUACCAGUCGUACAGCCGACCCUUGGCAGCGGUAGCAUUGCCCGGCGUCGGCUUGUG [theeternabot_exclusion_KL_Theo_A_17]	767

same assay, conditions: Eterna round: R107; input ligand: arginine 13.2 mM

Sequence	apparent KD of K4 kissing-loop reporter [nM]
UGUCAUUGGUCUGAUACCAGAAGAAUCUGGAGUGAUGUUCCAAGUCGAUCAAAAGAUCGCUUCCCUUGGCAGCAGACCGAUGACU [TheoBS 24 #SwitchBubble 13 #StaticStem]	291
UUAAGGGUCCGAGGAUAUCUCCCAGUGAUGUUGGGCGAUACGGCCCUUAAGACUAAUGGUUGAAGGAGAGAAGGCGGCUCCCGAU [Edmaisle]	120
GCGGCCCAGCCGGAUACCAGUGACCCGCUGGGAACCGCGGGCCCAGAGUGAUGUUCGGGACACCCUUGGCAGCCGCCUGGGACGC [#2 Same State - Theophylline B Attempt #17 (HarryS)]	126
CUGAGCCUGACGAAAGUCAGGCUCUGCGAGCGAGGACCGGUACGGCCGCCACUCGGUGCAGUGAUGUUGCAUGGCCGCAAGGCCG [#2 Exclusion - Tryptophan A Attempt #18 (HarryS)]	289
AGCCGAAAGGCGAGUGCUGUCACUCCGGAAGGAGCGCUCGAAAGAGCAGGUAGGUCGCCGGAGUGAUGUUCCGGUGCAGCACUCA [Omei KL Arginine A Exc B v5]	390
AAGUGAUGUUGUAGUGAUGUUGUGAUGUUGCAGGAUAUAUAGUGAUGUAGAAGGGUAUGUACAGAUUUUUUUUUUGAGUGAUGUU [ffdcmullin]	45.5
GGAUCCACCAGUGAUGUUGGAGAAAACUCUAAGGAUAUGACGAAAGUCAGAAGGUGGUAGACUGGUCAAAGUCCGGUCGGAUCCA [FmnA10 U30+U66]	191
GUGCGGCUAGUGAUGUUGGUUGCGUGGGAAGGAGCGCAGAAACAUGCAGGUAGGUCGCCCACACCUCUGAAAGGAGGUUAAUUCA [Diusdige]	172
UGGAGUUGACGAAAAGUCAACUCCCGAGAAGGAGCGGACGAAAGUCCAGGUAGGUCGCUCGCUACCAGUGAUGUUGGUACGUAAA	143
AACAAGGGAUGUCAGUGAUGUUGUACGUCGCGAGGACCGGUACGGCCGCCACUCGUAAUACACAGAUGAGGGUUCUUUCUCUGAU [theeternabot_sameState_KL_Trp_A_49]	179
